# Laboratory results taken from patent US8802630B2, “Method of treating brain injury” (Buddhist Tzu Chi General Hospital, priority 2011, dated 2014).
# Where no end group is shown, it is not given here.
# How the values were obtained:
# [1] = test system: collagenase-induced ICH rats; assay: modified Neurological Severity Score (mNSS), collagenase-induced ICH model; assay type: in vivo
# Procedure: The ICH refers to hemorrhage in the striatum, a part of the brain. Male Sprague-Dawley rats (250-300 g) anesthetized with chloral hydrate (0.4 g kg^−1 i.p., Sigma-Aldrich, St. Louis, Mo., USA). The blood infusion model of ICH was induced by intrastriatal (0.0 mm posterior, 3.0 mm right, 5.0 mm ventral to bregma skull surface) infusion of autologous blood (100 μl within 1 minute) and stereotaxic administration of bacterial collagenase VII-S into the striatum (MacLellan et al. 2008; Rosenberg et al. 1990). Briefly, bacterial collagenase VII-S (0.23 U in 1.0 μl sterile saline, Sigma-Aldrich) was infused into the striatum over a period of 10 minutes. The needle was kept in place for another 10 minutes to prevent backflow. The craniotomies were sealed with bone wax. The rats were allowed to recover in separate cages at room temperature.
# Rats were used in the assessment of the neurological abnormalities with a modified Neurological Severity Score (mNSS) method (Chen et al. 2001) by an investigator blinded to the experimental treatment scheme. The mNSS is a composite test of motor, sensory, and balance functions. The assessment was performed before and on 1, 3 and 7 days after the ICH. Neurological functions were graded on a scale of 0-18 (normal score, 0; maximal deficit score, 18).
# [2] = Cerebral blood flow after bolus injection of UCN; assay type: in vivo; settings: UCN 25 μg/kg body weight
# [3] = test system: IL-6; assay: Cytokine ELISA of ipsilateral striatal tissue; assay type: in vivo, rats; settings: L-UCN 2.5 μg/kg i.p.; day 1 post-ICH; vs ICH+Saline
# Procedure: (§1) Rats were used for the cytokine assay by ELISA. The ipsilateral striatal tissues were collected before and on days 1, 3 and 7 days post-ICH. After homogenization in the lysis buffer (PRO-PREP™, iNtRON Biotechnology, Korea) and centrifuged at 12,000 g for 30 minutes, the supernatants were collected and stored frozen at −80° C. During quantification, the cytokines (TNFα, IL-1β and IL-6) were normalized to 100 μg of proteins in the supernatant using a commercial ELISA kit from R & D Systems (Minneapolis, Minn., USA) according to the manufacturer's instructions.
# [4] = test system: IL-1β; assay: Cytokine ELISA of ipsilateral striatal tissue; assay type: in vivo, rats; settings: L-UCN 2.5 μg/kg i.p.; days 1, 3 and 7 post-ICH; vs ICH+Saline
# Procedure: as §1
# [5] = test system: TNF-α; assay: Cytokine ELISA of ipsilateral striatal tissue; assay type: in vivo, rats; settings: L-UCN 2.5 μg/kg i.p.; days 1, 3 and 7 post-ICH; vs ICH+Saline
# Procedure: as §1
# [6] = test system: collagenase-induced ICH rats; assay: Assessment of brain edema (brain water content, wet/dry method); assay type: in vivo; settings: day 3 post-ICH
# Source text: Brain edema formation peaks on day 3 post-ICH (Xue et al., 2000; Yang et al., 1994). […] Rats were randomly used in the assessment of brain water content by using a common wet/dry method as previously described (Chu et al., 2004). Briefly, 3 days post-ICH, rats were anesthetized and decapitated. The brains were removed and separated into contralateral, ipsilateral hemispheres and cerebellum. The cerebellum was used as an internal control. Sample was weighed to obtain the wet weight immediately, and then dried in an oven at 100° C. for 24 hours to obtain the dry weight. The water content was expressed as a percentage of the wet weight: [(wet weight)−(dry weight)](wet weight)^−1×100%.
# [7] = Evaluation of physiological parameters (MABP, heart rate, rectal temperature, blood gases); assay type: in vivo, rats; settings: for RT (rectal temperature) / pCO2 / pO2 / pH: ICH + L-UCN 2.5 μg/kg i.p.; for decrease in MABP / increase in HR: 1.0 to 3.0 h post-treatment; for pH: arterial blood
# Procedure: Rats were randomly assigned for evaluation of physiological parameters including mean arterial blood pressure, blood gases, body weight changes and body temperature. Under urethane (urethane (1.0 g/kg bodyweight, intraperitoneally, Sigma-Aldrich) anesthesia, a femoral artery was cannulated with a PE-50 polyethylene tube for fluid supplementation and monitoring of arterial blood pressure and blood gas. Arterial blood pressure was recorded through an amplifier (MP35, BIOPAC system, Inc.) and stored in a PC computer. Body temperature (rectal temperature) was automatically maintained at 37.5±0.5° C. by a rectal temperature sensor and a heating pad (CMA-150, Sweden). The physiological parameters were measured before (baseline) and after treatment (UCN or Saline) 0.5, 1 and 3 hours.
# [8] = UCN 2.5 μg/kg i.p. 1 h after ICH
substance,measurement,setting,value
"urocortin (DNPSLSIDLTFHLLRTLLELARTQSQRERAEQNRIIFDSV; ends and bridges not checked; UniProt P55089 83-122, looked up) [UCN, a 40-amino-acid endogenous neuropeptide, belongs to the corticotrophin releasing hormone (CRH) family]",mNSS,"[1]; H-UCN 25 μg/kg i.p. 60 min post-ICH, day 1, scale 0-18",6.55±0.26
same,mNSS,"[1]; H-UCN 25 μg/kg i.p. 60 min post-ICH, day 3, scale 0-18",4.68±0.29
same,mNSS,"[1]; H-UCN 25 μg/kg i.p. 60 min post-ICH, day 7, scale 0-18",2.00±0.26
same,mNSS,"[1]; L-UCN 2.5 μg/kg i.p. 60 min post-ICH, day 1, scale 0-18",3.86±0.70
same,mNSS,"[1]; L-UCN 2.5 μg/kg i.p. 60 min post-ICH, day 3, scale 0-18",1.71±0.55
same,mNSS,"[1]; L-UCN 2.5 μg/kg i.p. 60 min post-ICH, day 7, scale 0-18",1.63±0.46
same,mNSS,"[1]; UCN 0.05, 0.5 and 5 μg i.c.v. 1 h after collagenase ICH, over 7 days, most effective at 5 μg, vs ICH+Saline",dose-dependent reduction in the mNSS
same,reduction of the cerebral blood flow (CBF),[2]; bolus intraperitoneal injection,25%
same,reduction of CBF,[2]; bolus intravenous injection,40-45%
same,IL-6 level of ipsilateral striatum,[3],reduced
same,IL-1β level of ipsilateral striatum,[4],significantly reduced
same,TNF-α level of ipsilateral striatum,[5],significantly reduced
same,brain water content,"[6]; cerebellum, L-UCN and H-UCN i.p., among groups",No significant differences
same,brain water content,"[6]; cerebellum, UCN 5 μg i.c.v., among groups",essentially not affected
same,brain water content,"[6]; contralateral hemisphere, H-UCN 25 μg/kg i.p.",79.40±0.15%
same,brain water content,"[6]; contralateral hemisphere, L-UCN 2.5 μg/kg i.p.",79.98±0.19%
same,brain water content,"[6]; contralateral hemisphere, UCN 5 μg i.c.v.",80.08±0.08%
same,brain water content,"[6]; ipsilateral hemisphere, H-UCN 25 μg/kg i.p.",79.94±0.66%
same,brain water content,"[6]; ipsilateral hemisphere, L-UCN 2.5 μg/kg i.p.",80.60±0.17%
same,brain water content,"[6]; ipsilateral hemisphere, UCN 5 μg i.c.v.",81.16±0.16%
same,RT (rectal temperature),[7]; 0.5 h post-treatment,36.95 ± 0.03 °C
same,pCO2,[7]; 0.5 h post-treatment,45.07 ± 1.05 mmHg
same,pO2,[7]; 0.5 h post-treatment,105.24 ± 6.00 mmHg
same,RT (rectal temperature),[7]; 1.0 h post-treatment,37.00 ± 0.05 °C
same,pCO2,[7]; 1.0 h post-treatment,42.60 ± 2.44 mmHg
same,pO2,[7]; 1.0 h post-treatment,107.28 ± 5.35 mmHg
same,RT (rectal temperature),[7]; 3.0 h post-treatment,36.97 ± 0.02 °C
same,pCO2,[7]; 3.0 h post-treatment,43.25 ± 1.59 mmHg
same,pO2,[7]; 3.0 h post-treatment,107.90 ± 5.59 mmHg
same,RT (rectal temperature),[7]; baseline,36.92 ± 0.05 °C
same,pCO2,[7]; baseline,46.73 ± 1.80 mmHg
same,pO2,[7]; baseline,100.00 ± 4.40 mmHg
same,decrease in MABP,[7]; [8],≤ 25 mm Hg
same,increase in HR,[7]; [8],≤ 35 beats/min
same,mean arterial blood pressure,"[7]; UCN 5 μg i.c.v., over 3 hours",no significant difference
same,fall in mean arterial blood pressure (MABP),"[7]; UCN 25 μg/kg body weight, bolus intraperitoneal injection",40-50 mmHg
same,fall of MABP,"[7]; UCN 25 μg/kg body weight, bolus intravenous injection, vs intraperitoneal",much more abrupt fall of MABP
same,decrease in MABP,[7]; UCN 25 μg/kg i.p.,≤ 40 mm Hg
same,increase in HR,[7]; UCN 25 μg/kg i.p.,≤ 45 beats/min
same,pH,[7]; 0.5 h post-treatment,7.39 ± 0.01
same,pH,[7]; 1.0 h post-treatment,7.42 ± 0.01
same,pH,[7]; 3.0 h post-treatment,7.42 ± 0.01
same,pH,[7]; baseline,7.37 ± 0.02
